{"source": "paper PMC2998070", "biological_target": "mouse VMS1-Flag-HA (mouse) (UniProt Q80UU1)", "sequence (Q80UU1 whole entry)": "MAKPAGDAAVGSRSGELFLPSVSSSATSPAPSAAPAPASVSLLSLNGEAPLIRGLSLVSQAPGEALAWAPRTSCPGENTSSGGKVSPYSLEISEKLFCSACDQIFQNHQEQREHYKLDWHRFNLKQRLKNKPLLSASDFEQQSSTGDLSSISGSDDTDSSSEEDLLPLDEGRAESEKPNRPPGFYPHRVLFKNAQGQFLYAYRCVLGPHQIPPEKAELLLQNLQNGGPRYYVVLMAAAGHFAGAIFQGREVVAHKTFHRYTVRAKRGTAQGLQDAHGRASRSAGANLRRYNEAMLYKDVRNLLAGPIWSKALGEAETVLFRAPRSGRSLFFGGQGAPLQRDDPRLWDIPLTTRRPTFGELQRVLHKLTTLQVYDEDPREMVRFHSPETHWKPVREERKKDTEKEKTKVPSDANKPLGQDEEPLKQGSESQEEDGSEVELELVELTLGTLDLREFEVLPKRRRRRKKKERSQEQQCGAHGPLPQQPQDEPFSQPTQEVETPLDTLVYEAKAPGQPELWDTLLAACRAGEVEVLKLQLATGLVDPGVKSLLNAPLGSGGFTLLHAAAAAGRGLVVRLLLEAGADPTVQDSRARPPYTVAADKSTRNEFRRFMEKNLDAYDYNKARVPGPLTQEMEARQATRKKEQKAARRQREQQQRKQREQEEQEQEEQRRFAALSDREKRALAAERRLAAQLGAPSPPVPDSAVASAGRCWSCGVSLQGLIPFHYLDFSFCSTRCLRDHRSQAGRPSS", "assay": "co-IP", "data": [{"substance": "VCP (from UniProt Q01853 1-806) (natural protein)", "values": [{"measurement": "percent of the total cellular VCP associated with Vms1", "value": "< 5", "unit": "%"}]}]}
